Data published in paper PMC11018607, “A widely conserved protein Rof inhibits transcription termination factor Rho and promotes Salmonella virulence program” (Nature Communications, 2024).

Target: T1, Transcription termination factor Rho (E. coli) (E. coli, UniProt P0AG30 1-419)
T1 construct: Transcription termination factor Rho, E. coli, expressed from pET24b-rho; no tag is mentioned; In the cryo-EM map density was absent for residues 280-284; also called EcRho; Rho hexamer; source: E. coli BL21(DE3) carrying pET24b-rho, purified (HiTrap Q, heparin, Superdex 200)
T1 sequence (P0AG30 whole entry, the tested form may be a part): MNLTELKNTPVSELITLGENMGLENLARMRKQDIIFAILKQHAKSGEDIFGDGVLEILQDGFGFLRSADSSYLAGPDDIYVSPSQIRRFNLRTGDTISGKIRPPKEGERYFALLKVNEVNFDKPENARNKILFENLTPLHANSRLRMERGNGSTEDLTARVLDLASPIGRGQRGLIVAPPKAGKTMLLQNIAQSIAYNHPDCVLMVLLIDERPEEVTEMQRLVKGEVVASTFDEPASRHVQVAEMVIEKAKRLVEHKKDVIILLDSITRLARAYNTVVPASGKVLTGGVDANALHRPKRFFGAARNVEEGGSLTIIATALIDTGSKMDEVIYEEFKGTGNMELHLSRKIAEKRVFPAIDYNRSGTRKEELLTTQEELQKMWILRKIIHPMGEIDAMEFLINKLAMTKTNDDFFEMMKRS
Experiment: SEC; gel filtration of the complex assembled by mixing purified Rho and Rof at a ratio of 1:1
Details: both partners purified

B1: Rof (Rho-off, YaeO), E. coli (natural protein)
chain: MNDTYQPINCDDYDNLELACQHHLMLTLELKDGEKLQAKASDLVSRKNVEYLVVEAAGETRELRLDKITSFSHPEIGTVVVSES
notes: Protein Rof (YaeO), E. coli, expressed from pET22b-rof; In the cryo-EM map density was absent for Rof residues 1-5; No removal of the tag is described; also called EcRof; source: E. coli BL21(DE3) transformed with pET22b-rof, purified (Ni-NTA, Superdex 200)
binding result: binds
